Experimental findings from publication doi:10.1101/414334 are described below.

Assay [1] concerns the target glyceraldehyde-3-phosphate dehydrogenase (GAPDH) of Thermosynechococcus elongatus (Thermosynechococcus elongatus BP-1). Put plainly: crystal structure.
The target is the same in assay [2]. Put plainly: crystal structure. This is another data set of the same source.
Assay [3] shares this target. Briefly: cryo-EM structure.
For assay [4], the target named is phosphoribulokinase (PRK) of Thermosynechococcus elongatus, native (Thermosynechococcus elongatus (endogenous in T. elongatus cells)). Put plainly: cryo-EM structure.

As to “CP12 of Thermosynechococcus elongatus (natural protein)”, the figures for the stoichiometry N (CP12 per GAPDH tetramer) in assay [1], in assay [2] and in assay [3] were 2, 4 and 2, respectively.

“glyceraldehyde-3-phosphate dehydrogenase (GAPDH) of Thermosynechococcus elongatus (enzyme)”: the stoichiometry N in assay [1] and in assay [3] was 4 each time.

Take “phosphoribulokinase (PRK) of Thermosynechococcus elongatus, native (enzyme)”: the stoichiometry N in assay [4] was 2.

What is called stoichiometry N is the number of molecules, sites or subunits per partner or assembly.
